± gives the standard deviation of the averaged measurements.
system: Saccharomyces cerevisiae; assay: protein stability index of tFT-peptide fusion (C-terminal peptide) (PSI (0-1 scale)); higher = more stable (slower turnover); conditions: genetic background: wild type; temperature: 30 C
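Note: PSI is a weighted mean of sequencing reads over stability bins, variants kept only with over 10 reads, mCherry proximal and sfGFP distal, peptide attached via GGGS linker.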

Row | Sequence | protein stability index
1 | VRFVVRSVSSFV | 0.5973 ± 0.0014
2 | VRFVVRVFQCSF | 0.466 ± 0.052
3 | VRGFFTLSGNLI | 0.716 ± 0.072
4 | VRGKGWRGGWWG | 0.682 ± 0.031
5 | VRGLGRLSRAEV | 0.77 ± 0.014
6 | VRGRGRQDVDGG | 0.699 ± 0.11
7 | VRGRGVYRIDKV | 0.716 ± 0.018
8 | VRLIGVSVGALE | 0.579 ± 0.068
9 | VRLLAESWEGGR | 0.702 ± 0.017
10 | VRPEPSTGARGA | 0.669 ± 0.049
11 | VRPFTLLSSYSV | 0.644 ± 0.028
12 | VRPREWMIPFEC | 0.709 ± 0.012
13 | VRRRRVPSEATR | 0.667 ± 0.044
14 | VRSDHSGLEILG | 0.782 ± 0.11
15 | VRVECGVWGSVS | 0.65806 ± 0.00012
16 | VRVEGQCWMGRI | 0.679 ± 0.017
17 | VRVGRGGKELND | 0.576 ± 0.11
18 | VRVKRAGGGGVG | 0.591 ± 0.028
19 | VRVVGVSGGEGG | 0.644 ± 0.027
20 | VRVVPPQPELSP | 0.648 ± 0.051
21 | VRVYLSQNSRFG | 0.723 ± 0.066
22 | VRWGLLLSCLRS | 0.666 ± 0.03
23 | VRWSEVGMGVWR | 0.708 ± 0.014

Row | Sequence | protein stability index
24 | VSAFLPLFLLTP | 0.601 ± 0.055
25 | VSCNRGAYVRSR | 0.6776 ± 0.0053
26 | VSFAGSPVPSSS | 0.716 ± 0.0095
27 | VSFCDVEVRFFV | 0.619 ± 0.066
28 | VSFWSVFSWLSG | 0.665 ± 0.014
29 | VSGCPVVFRSYC | 0.693 ± 0.024
30 | VSGDRFKRHESV | 0.695 ± 0.027
31 | VSGFVILDSTCP | 0.671 ± 0.025
32 | VSIMRLGSCRQD | 0.702 ± 0.033
33 | VSLLCFCFGCVL | 0.604 ± 0.022
34 | VSLPMAPPPLDG | 0.616 ± 0.013
35 | VSLVVGTGEWGA | 0.762 ± 0.17
36 | VSLYRRFLGVYS | 0.532 ± 0.011
37 | VSPGYWGPAPLC | 0.682 ± 0.016
38 | VSPPPRFPLLPS | 0.669 ± 0.03
39 | VSPRYRDRPGPS | 0.692 ± 0.015
40 | VSPSPLDHPFHV | 0.684 ± 0.021
41 | VSSVTFSLSFAL | 0.813 ± 0.082
42 | VSSWNALCVEGM | 0.649 ± 0.0073
43 | VSTRVAVESPLG | 0.656 ± 0.03
44 | VSVGRSSARVIG | 0.725 ± 0.02
45 | VSVSERVGNMLP | 0.679 ± 0.035
46 | VTCRALTFSLLG | 0.635 ± 0.12

Row | Sequence | protein stability index
47 | VTDTSCRAEVEQ | 0.701 ± 0.059
48 | VTEGVGGGKGRG | 0.597 ± 0.056
49 | VTFPSAHSSRRF | 0.71635 ± 0.00041
50 | VTIFAGIGQFWF | 0.706 ± 0.021
51 | VTKRSKKNPTNN | 0.691 ± 0.018
52 | VTREEALICSQP | 0.811 ± 0.13
53 | VTSVCGYVRIWW | 0.71 ± 0.047
54 | VTVLFFLGPSLL | 0.575 ± 0.013
55 | VVAAGGASDVGG | 0.712 ± 0.056
56 | VVADNGASGWAW | 0.7579 ± 0.0033
57 | VVALLGPSGGWW | 0.742 ± 0.018
58 | VVASSRSAQRLP | 0.7006 ± 0.0064
59 | VVCRTSPVCLGK | 0.672 ± 0.019
60 | VVDGWVAAWGVW | 0.694 ± 0.003
61 | VVFGLESCDWRG | 0.669 ± 0.0093
62 | VVGHGLAGCKVG | 0.668 ± 0.037
63 | VVGRCVWRGMGG | 0.688 ± 0.031
64 | VVGRGGGFVGPG | 0.616 ± 0.026
65 | VVGRVGGFVGPG | 0.677 ± 0.1
66 | VVGRVTGGGSDG | 0.646 ± 0.037
67 | VVGRWGWACCRP | 0.681 ± 0.071
68 | VVHATITGPVRS | 0.635 ± 0.019
69 | VVKKDTHVKRKT | 0.636 ± 0.027

Row | Sequence | protein stability index
70 | VVLFHGLGFCHN | 0.627 ± 0.072
71 | VVLGGFAVGLGF | 0.708 ± 0.021
72 | VVLPLCRVPSHW | 0.688 ± 0.05
73 | VVLRRTLGAFLF | 0.661 ± 0.059
74 | VVREAKGHGGCR | 0.667 ± 0.014
75 | VVREARTLNGDM | 0.671 ± 0.099
76 | VVRLTALTNATV | 0.671 ± 0.086
77 | VVRLTNGLFSIL | 0.662 ± 0.0094
78 | VVSITYCGQGGG | 0.694 ± 0.045
79 | VVSLGLGPSLRV | 0.709 ± 0.1
80 | VVSQSPTLGSNY | 0.655 ± 0.022
81 | VVTSVLCGRVHL | 0.682 ± 0.0069
82 | VVVAWGGGAVVG | 0.684 ± 0.018
83 | VVVGSITRLGLW | 0.6908 ± 0.00074
84 | VVVGVGGCVDMG | 0.676 ± 0.014
85 | VVVGWWALGRFL | 0.629 ± 0.018
86 | VVVRAGAIFAIP | 0.62 ± 0.045
87 | VVVSRARSSRSS | 0.6332 ± 0.0021
88 | VVWEGSEFVSLA | 0.671 ± 0.039
89 | VVWSGRWKGLRV | 0.621 ± 0.12
90 | VWAWGACPRGEG | 0.6429 ± 0.0016
91 | VWCAFNLLFARQ | 0.574 ± 0.032
92 | VWGIIQTDRMGR | 0.744 ± 0.017

Row | Sequence | protein stability index
93 | VWGRGWVVGWFL | 0.612 ± 0.066
94 | VWGRLGGGVGRA | 0.719 ± 0.069
95 | VWGRQGGGVGRA | 0.715 ± 0.088
96 | VWGVFGGCWCGV | 0.693 ± 0.021
97 | VWSWGDGGGAVV | 0.734 ± 0.029
98 | VWTATLRPPGHP | 0.655 ± 0.068
99 | VWVGGGRRDPKY | 0.735 ± 0.075
100 | VWVGGVSVGFFG | 0.716 ± 0.061
101 | VWVSRPWGRGGL | 0.681 ± 0.038
102 | VYACGVDFNVRG | 0.678 ± 0.094
103 | VYRLYPLSPLLY | 0.679 ± 0.12
104 | VYVLTKSSMGRN | 0.692 ± 0.048
105 | WADLIPDSFGDM | 0.741 ± 0.059
106 | WADYLWFGLNGG | 0.712 ± 0.028
107 | WAGGGGGRVCGW | 0.799 ± 0.11
108 | WAGGSGRRIGCR | 0.712 ± 0.0089
109 | WARSLPHPISRR | 0.803 ± 0.064
110 | WASKVGSYICAE | 0.671 ± 0.02
111 | WCFSLGYFFFCR | 0.585 ± 0.05
112 | WCFVGLVNTCRI | 0.617 ± 0.025
113 | WCFVPLSFRLDS | 0.71 ± 0.025
114 | WCGGGGVACLLL | 0.693 ± 0.0086
115 | WCGTLVDRGCSL | 0.554 ± 0.026

Row | Sequence | protein stability index
116 | WCQREPSSKYKI | 0.578 ± 0.054
117 | WDGWPTGSGGTG | 0.72654 ± 0.00043
118 | WECGRVSVIRRC | 0.594 ± 0.019
119 | WESWGPDWLCVG | 0.769 ± 0.035
120 | WFGSGGRGWREF | 0.713 ± 0.048
121 | WFKSIREGKGSR | 0.68 ± 0.044
122 | WFNAGAGDLGSV | 0.709 ± 0.033
123 | WFPPLPPPPPPS | 0.734 ± 0.028
124 | WGCVGVGGLFSG | 0.665 ± 0.017
125 | WGECGVWVGLWG | 0.709 ± 0.051
126 | WGGGVGWSGACL | 0.734 ± 0.02
127 | WGGRSGTWGLVG | 0.803 ± 0.1
128 | WGGTGALGTVRW | 0.759 ± 0.028
129 | WGGVGLRGGWDG | 0.713 ± 0.047
130 | WGGVGRLAGLLG | 0.703 ± 0.021
131 | WGGYLISLNLYN | 0.561 ± 0.025
132 | WGHFVGVWGRAG | 0.664 ± 0.075
133 | WGLGVFALKTLL | 0.623 ± 0.034
134 | WGRAGPSSPCSC | 0.709 ± 0.088
135 | WGRGWWEMVGRT | 0.686 ± 0.0074
136 | WGRIVRDFHCGG | 0.614 ± 0.0083
137 | WGRQSERILRST | 0.606 ± 0.046
138 | WGRRWRCAGRGG | 0.656 ± 0.056

Row | Sequence | protein stability index
139 | WGSSCQAEDVTN | 0.737 ± 0.016
140 | WGTGGGLGVGHV | 0.726 ± 0.093
141 | WGVCGVFLCLGV | 0.572 ± 0.11
142 | WGVGVGGRMRPH | 0.707 ± 0.044
143 | WGWSLARRFLSV | 0.555 ± 0.037
144 | WGYRLRGGGGQG | 0.701 ± 0.064
145 | WHFTPPPPPTSP | 0.715 ± 0.011
146 | WHGLLEWLAWRT | 0.736 ± 0.078
147 | WHRTGPFCGFPC | 0.766 ± 0.17
148 | WIIRATCAGVSL | 0.528 ± 0.032
149 | WKETGRGTISHK | 0.699 ± 0.013
150 | WKEVGGSRILLV | 0.6033 ± 0.0031
151 | WKKYTKTKKKKN | 0.689 ± 0.021
152 | WLDDCVRVGMRI | 0.6722 ± 0.0033
153 | WLEVHVRERPGL | 0.661 ± 0.035
154 | WLFFVCEDAGGC | 0.68 ± 0.021
155 | WLPTTPLPPLSP | 0.703 ± 0.018
156 | WLVRRVSSGQFG | 0.653 ± 0.062
157 | WNCRILGLVMRG | 0.695 ± 0.029
158 | WNFVCGVFFATG | 0.543 ± 0.056
159 | WNPHFHALSWRL | 0.684 ± 0.019
160 | WPAPLPPTRPLP | 0.722 ± 0.038

From the supplement of paper PMC10724198
